T1: hICOS-Fc (human, UniProt Q9Y6W8 21-141, limits assumed)
T1 construct: Bought (R&D systems); not shown: Fc; not described
T1 sequence (looked up): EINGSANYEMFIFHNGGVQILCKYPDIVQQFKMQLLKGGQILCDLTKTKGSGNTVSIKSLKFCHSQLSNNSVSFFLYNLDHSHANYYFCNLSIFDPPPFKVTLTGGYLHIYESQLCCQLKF

T2: hCTLA4-Fc (human, UniProt P16410 37-162, limits assumed)
T2 construct: Bought (R&D systems); not shown: Fc; not described
T2 sequence (looked up): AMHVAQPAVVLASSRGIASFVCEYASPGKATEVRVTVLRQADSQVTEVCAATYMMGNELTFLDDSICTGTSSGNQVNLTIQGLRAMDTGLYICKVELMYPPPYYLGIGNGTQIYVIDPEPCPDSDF

T3: PRO87299(ECD)-Fc (human, UniProt Q7Z6A9 31-155, I-125 radiolabel in the cell binding assays (Table 7); residues not stated)
T3 construct: Extracellular domain (amino acids 1-155) ligated into a plasmid containing a human Fc domain; also called PRO87299-Fc; PRO87299(ECD)-Fc chimera; not shown: human Fc domain
T3 sequence: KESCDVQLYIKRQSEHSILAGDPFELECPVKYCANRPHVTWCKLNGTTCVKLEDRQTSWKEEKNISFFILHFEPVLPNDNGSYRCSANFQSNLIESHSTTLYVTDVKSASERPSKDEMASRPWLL

T4: HVEM expressed on transfected 293 cells (Homo sapiens (Human), UniProt Q92956 39-283)
T4 construct: also called HVEM transfected cells; 293 cells expressing HVEM
T4 sequence: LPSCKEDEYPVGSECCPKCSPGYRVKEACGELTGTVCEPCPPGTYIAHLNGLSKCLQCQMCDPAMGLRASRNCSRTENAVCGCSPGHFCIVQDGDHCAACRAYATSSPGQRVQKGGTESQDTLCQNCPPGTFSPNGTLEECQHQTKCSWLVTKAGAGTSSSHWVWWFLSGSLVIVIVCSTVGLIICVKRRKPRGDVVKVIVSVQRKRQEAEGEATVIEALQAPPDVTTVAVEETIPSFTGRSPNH

B1: HVEM-Fc (Fc fusion)
chain: LPSCKEDEYPVGSECCPKCSPGYRVKEACGELTGTVCEPCPPGTYIAHLNGLSKCLQCQMCDPAMGLRASRNCSRTENAVCGCSPGHFCIVQDGDHCAACRAYATSSPGQRVQKGGTESQDTLCQNCPPGTFSPNGTLEECQHQTKCSWLVTKAGAGTSSS
modifications: I-125 radiolabel in the cell binding assays (Table 7); residues not stated
notes: also called I-125-HVEM-Fc; HVEM-Fc fusion protein; not shown: Fc
B2: LIGHT-FLAG (ligand)
chain: GEMVTRLPDGPAGSWEQLIQERRSHEVNPAAHLTGANSSLTGSGGPLLWETQLGLAFLRGLSYHDGALVVTKAGYYYIYSKVQLGGVGCPLGLASTITHGLYKRTPRYPEELELLVSQQSPCGRATSSSRVWWDSSFLGGVVHLEAGEEVVVRVLDERLVRLRDGTRSYFGAFMV
modifications: I-125 radiolabel; residues not stated
notes: also called I-125-LIGHT-FLAG; not shown: FLAG tag

Assays:
PRO87299 on cells = biological target: T5, PRO87299 on cells (human, UniProt Q7Z6A9 31-289); experiment: radioligand binding to transfected cells, Scatchard analysis
T5 construct: Used both for transfected cells and for the native protein on human primary B and CD4+ T cells; also called PRO87299 transfected cells; 293 cells expressing PRO87299

[1] = biological target: T6, LIGHT expressed on transfected cells (Homo sapiens (Human), UniProt O43557 1-240); experiment: as above
T6 construct: also called Expressed protein LIGHT

[2] = biological target: T7, PRO87299/LIGHT (both expressed on the same cells) (human, UniProt Q7Z6A9 31-289; O43557 1-240); experiment: radioligand binding to cells expressing PRO87299/LIGHT, Scatchard analysis
T7 construct: also called Expressed protein PRO87299/LIGHT

hCD28-Fc = biological target: T8, hCD28-Fc (human, UniProt P10747 19-152, limits assumed); experiment: Biacore; hCD28-Fc amine coupled to a CM5 chip, HVEM-Fc injected at 2 ug/ml and 5 ul/min
T8 construct: Bought (R&D systems); not shown: Fc; not described
T8 sequence (P10747 19-152 limits assumed): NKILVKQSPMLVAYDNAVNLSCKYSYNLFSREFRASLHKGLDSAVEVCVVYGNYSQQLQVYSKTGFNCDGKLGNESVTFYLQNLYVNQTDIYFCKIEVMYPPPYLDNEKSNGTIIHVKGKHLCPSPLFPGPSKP

hICOS-Fc = biological target: T1, hICOS-Fc; experiment: Biacore; hICOS-Fc amine coupled to a CM5 chip, HVEM-Fc injected at 2 ug/ml and 5 ul/min
hPD-1-Fc = biological target: T9, hPD-1-Fc (human, UniProt Q15116 25-167, limits assumed); experiment: Biacore; hPD-1-Fc amine coupled to a CM5 chip, HVEM-Fc injected at 2 ug/ml and 5 ul/min
T9 construct: Bought (R&D systems); not shown: Fc; not described
T9 sequence (Q15116 25-167 limits assumed): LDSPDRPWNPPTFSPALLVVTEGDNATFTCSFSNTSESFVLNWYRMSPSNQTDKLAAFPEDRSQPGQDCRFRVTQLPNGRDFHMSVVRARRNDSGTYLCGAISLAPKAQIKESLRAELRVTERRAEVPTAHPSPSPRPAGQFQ

hCTLA4-Fc = biological target: T2, hCTLA4-Fc; experiment: Biacore; hCTLA4-Fc amine coupled to a CM5 chip, HVEM-Fc injected at 2 ug/ml and 5 ul/min
PRO87299(ECD)-Fc = biological target: T3, PRO87299(ECD)-Fc; experiment: Biacore; HVEM-Fc amine coupled to a CM5 chip at 150 RU, PRO87299-Fc 17 nM injected at 5 ul/min for 1200 s, alone and mixed with 25 nM LIGHT
[3] = biological target: T4, HVEM expressed on transfected 293 cells; experiment: radioligand binding to transfected cells, Scatchard analysis

Row | Binder | Kd (PRO87299 on cells) [nM] | Kd [1] [nM] | Kd [2] [nM] | binding result (hCD28-Fc) | binding result (hICOS-Fc) | binding result (hPD-1-Fc) | binding result (hCTLA4-Fc) | binding result (PRO87299(ECD)-Fc) | Kd [3] [nM]
1 | B1 | 5.5 | 7 | 0.5 | no binding (tested: 2 ug/ml) | no binding (tested: 2 ug/ml) | no binding (tested: 2 ug/ml) | no binding (tested: 2 ug/ml) | binds | 
2 | B2 |  |  |  |  |  |  |  |  | 2.5
